Laboratory results as given in US20130064825A1.

How the values were obtained:
[1] = target: cynomolgus monkey PCSK9, V5-6xHIS tagged (cynomolgus monkey); assay: SPR (Biacore 2000), antibody amine-coupled on CM5 chip, PCSK9 injected, pH 7.4
[2] = target: cynomolgus monkey PCSK9, V5-6xHIS tagged (cynomolgus monkey); assay: KinExA solution equilibrium, PCSK9-coated beads; cyno PCSK9
[3] = target: cynomolgus monkey PCSK9, V5-6xHIS tagged (cynomolgus monkey); assay: Biacore solution equilibrium assay: PCSK9 mixed with 21B12.1, free PCSK9 read on immobilised 21B12

Kd [1] [nM]	Kd [2] [nM]	Kd [3] [nM]	Binder
0.87	0.016	–	16F12, anti-PCSK9 huIgG4 (antibody, V domains shown) VH: QVHLVESGGGVVQPGRSLRLSCAASGFTFNSFGMHWVRQAPGKGLEWVALIWSDGSDEYYADSVKGRFTISRDNSKNTLYLQMNSLRAEDTAVYYCARAIAALYYYYGMDVWGQGTTVTVSS VL: QSVLTQPPSVSAAPGQKVTISCSGSSSNIGNNFVSWYQQLPGTAPKLLIYDYNKRPSGIPDRFSGSKSGTSATLGITGLQTGDEADYYCGTWDSSLSAYVFGTGTRVTVLQ
0.36	–	0.011	21B12, anti-PCSK9 huIgG4 (antibody, V domains shown) VH: QVQLVQSGAEVKKPGASVKVSCKASGYTLTSYGISWVRQAPGQGLEWMGWVSFYNGNTNYAQKLQGRGTMTTDPSTSTAYMELRSLRSDDTAVYYCARGYGMDVWGQGTTVTVSS VL: QSALTQPASVSGSPGQSITISCTGTSSDVGGYNSVSWYQQHPGKAPKLMIYEVSNRPSGVSNRFSGSKSGNTASLTISGLQAEDEADYYCNSYTSTSMVFGGGTKLTVLQ
